Consider one substance from US20170058319A1, “NANOSENSOR FOR ASSESSING THROMBIN INHIBITORS” (VIRGINIA COMMONWEALTH UNIVERSITY, priority 2014, published 2017).

The target of assay [1] is Au-TH nanoprobe (gold nanoparticles covalently linked to bovine α-thrombin) (bovine) (UniProt P00735). Put plainly: displacement of HirP from the Au-TH nanoprobe by AT at 100 µM, 1 h incubation.
For assay [2] the target is unchanged. Put plainly: displacement of HirP from the Au-TH nanoprobe by AT at 10 µM, 1 h incubation.
Assay [3] shares this target. As to the kind of experiment: displacement of HirP from the Au-TH nanoprobe by AT at 1 µM, 1 h incubation.
For assay [4] the target is unchanged. As to the kind of experiment: cell-based or functional assay.

Antithrombin (AT), sequence (P01008 33-464): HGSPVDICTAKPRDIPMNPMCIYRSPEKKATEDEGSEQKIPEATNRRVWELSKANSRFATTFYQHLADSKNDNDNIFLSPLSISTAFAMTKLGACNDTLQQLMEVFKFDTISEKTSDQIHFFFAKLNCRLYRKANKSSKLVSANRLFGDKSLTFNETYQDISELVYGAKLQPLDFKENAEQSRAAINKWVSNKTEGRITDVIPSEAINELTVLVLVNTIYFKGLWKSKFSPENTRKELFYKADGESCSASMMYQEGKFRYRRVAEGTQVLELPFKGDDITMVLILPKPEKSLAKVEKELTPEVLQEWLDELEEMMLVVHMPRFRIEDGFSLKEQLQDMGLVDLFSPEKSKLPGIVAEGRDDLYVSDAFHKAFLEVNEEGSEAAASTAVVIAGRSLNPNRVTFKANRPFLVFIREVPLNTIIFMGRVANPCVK

For the substance Antithrombin (AT), the increase in fluorescence at 525 nm worked out at 20% in assay [1], 25% in assay [2] and 40% in assay [3]. This substance gave a neutralization of surface bound thrombin (chromogenic substrate hydrolysis) in assay [4] of less than 60%.
